Assay results from the RNAGym collection of RNA variant scans (doi:10.7554/elife.90254).

B1: LINE1-full (parent)
chain: UACGUAGGUGGUUUUCCCCUGAUAGUGCUAAGGGGGCCUGGAAGUUUGGACUGGGCAGAGCUCAACACAGCGUGGCAAAGUGGCUGUGGCUAGACUGCCUCUCUGGAUUCCUCGUCACUCAGCAGGGCAUCUCUGAGAGAAAUGCC

Variants of: B1
Assay: self-cleavage, relative activity (ratio to wild type); higher = more cleavage; in vitro, sequencing; the parent is a self-cleaving ribozyme

Row | Variant | self-cleavage
1 | UACGUAGGUGGUUUUCCCCUGAUAGUGCUAAGGGGGCCUGGAAGUUUGGGCUCGGCAGAGCUCAACACAGCGUGGCAAAGUGGCUGUGGCUAGACUGCCUCUCUGGAUUCCUCGUCACUCAGCAGGGCAUCUCUGAGAGAAAUGCC [A50G G53C] | 0.13
2 | UACGUAGGUGGUUUUCCCCUGACAGUGCUAAGGGGGCCUGGAAGUUUGGACUGGGCAGAGCUCAACACAGCGUGGCAAAGUGGCUGUGGCUAGACUGCCUCUCUGGAUACCUCGUCACUCAGCAGGGCAUCUCUGAGAGAAAUGCC [U23C U109A] | 1.49
3 | UACGUAGGUGGUUUUCCCCUGAUAGUGCUAAGGGGGCCUGGAAGUUUGGACUGGGCAGAGCUCAACACAGCGUGGCAAAGUGGCGGUGGCUAGACUGCCUCUCUGGAUUCCUCGUCACUCAGCAGGGCAUCUCUGGGAGAAAUGCC [U85G A136G] | 0
4 | UACGUAGGUGGUUUUCCCCUGAUAGUGCUAAGGGGGCCUGGAAGUUUGGACUGGGCAGAGCUCAACACAGCGCGGCAAAGUGGCUGUGGCUAGACUGCCUCUUUGGAUUCCUCGUCACUCAGCAGGGCAUCUCUGAGAGAAAUGCC [U73C C103U] | 1.61
5 | UACGUAGGUGGUGUUCCCCUGAUAGUGCUAAGGGGGCCUGGAAGUUUGGACUGGGCAGAGCUCAACACAGCGUGGCAAAGUGGCUGUGGCUAGACUGCCUCUCUGGAUUCCUCAUCACUCAGCAGGGCAUCUCUGAGAGAAAUGCC [U13G G114A] | 0.64
6 | UACGUAGGUGGUUUUCCCCUGAUAGUGCUUAGGGGGCCUGGAAGUUUGGACUGGGCAGAGCUCAGCACAGCGUGGCAAAGUGGCUGUGGCUAGACUGCCUCUCUGGAUUCCUCGUCACUCAGCAGGGCAUCUCUGAGAGAAAUGCC [A30U A65G] | 0.06
7 | UACGUAGGUGGUUUUCCCCUGAUAGUGCUAAGGGGGCCUGGAAGUUUGGACUGGGCAGAGCUCAACACAGCGUGGCAAAGUGGCUGUGACUAGACUGCCUCUCUGGAUUCCUCGUCACUCAGCAGGGCAUCUCUGAGUGAAAUGCC [G89A A138U] | 0.05
8 | UACGUAGGUGGUCUUCCCCUGAUAGUGCUAAGGGGGCCUGGAAGUUUGGACUGGGCAGAGCUCAACACAGCGUGGCAAAGUGGCUGUGGCUAGACUGCCUCUCUGGAUUCCUCGUCACUCAUCAGGGCAUCUCUGAGAGAAAUGCC [U13C G122U] | 1.02
9 | UACGUAGGUGGUUUUCCCCUGAUAGUGCUAAGGGGGCCUGGAAGUUUGGACUGGGCAGAGCUCAACACAGCGUGGCAAAGUGGCUGUGGCUAGACUGCCUCUCCGGAUUCCUUGUCACUCAGCAGGGCAUCUCUGAGAGAAAUGCC [U104C C113U] | 1.8
10 | UACGUAGGUGGUUUUCCCCUGAUAGUGCUAAGGGGGCCUGGAAGUUUGGACUGGGCAGAGCUCAACACAGCGUGGCAAAGUGGCUGUGGCUAGACUGCCUCUCUGGAUUCUUCGCCACUCAGCAGGGCAUCUCUGAGAGAAAUGCC [C111U U115C] | 1.55
11 | UACGUAGGUGGUUUUCUCCUGAUAGCGCUAAGGGGGCCUGGAAGUUUGGACUGGGCAGAGCUCAACACAGCGUGGCAAAGUGGCUGUGGCUAGACUGCCUCUCUGGAUUCCUCGUCACUCAGCAGGGCAUCUCUGAGAGAAAUGCC [C17U U26C] | 0.6
12 | UACGUAGGUGGUUUUCCCCUGAUAGUGCUAAGGGGGCCUGGAAGUUUGGUCUGGGCAGAGCUCAACACAGCGUGGCAAAGUGGCUGUGGCUAGACUGCCUCUCUGGAUUCCUCGUCACUCAGCAGGGCAUCUCUGAGAGGAAUGCC [A50U A140G] | 1.05
13 | UACGUAGGUGGUUUUCCCCUGAUAGUGCUAAGGGGGCCUGGAAGUUUGGACUGGGCAGAGCUCAACACAACGUGGCAAAGUGGCUGUGGCUAGACUGCCUCUCUGGAUUCCUCGUCACUCAGCAGGGCAUCUCUGAGAGGAAUGCC [G70A A140G] | 0.06
14 | UACGUAGGUGGUUUUCCCCUGAUUGUGCUAAGGGGGCCUGGAAGUUUGGACUGGGCAGAGCUCAACACAGCGUGGCAAAGUGGCUGUGGCUAGACUGCCUCUCUGGAUUCCUCGUCGCUCAGCAGGGCAUCUCUGAGAGAAAUGCC [A24U A117G] | 0.54
15 | UACGUAUGUGGUUUUCCCCUGAUAGUGCUAAGGGGGCCUGGAAGUUUGGACUGGGCAGAGCUCAACACAGCGUGGCAAAGUGGCUGUGGCUAGACUGCCUCUCUGGAUUCCUCGUCACUCAGCAGGGCAUCUCUGAGAGGAAUGCC [G7U A140G] | 1.33
16 | UACGUAGGUGGUUUUCCCCUGAUAGUGCUCAGGGGGCCUGGAAGUUUGGACUGGGCAGAGCUCAACACAGCGUGGCAAAGUGGCUGUGGCUAGACUGCCUCUCUGGAUUCCUCGUCACUCAGCAGGGCAUCUCUGAGAGGAAUGCC [A30C A140G] | 1
17 | UACGUAGGUGGCUUUCCCCUGAUAGUGCUGAGGGGGCCUGGAAGUUUGGACUGGGCAGAGCUCAACACAGCGUGGCAAAGUGGCUGUGGCUAGACUGCCUCUCUGGAUUCCUCGUCACUCAGCAGGGCAUCUCUGAGAGAAAUGCC [U12C A30G] | 0.87
18 | UACGGAGGUGGUUUUCCCCUGAUAGUGCUAAGGGGGCCUGGAAGUUUGGACUGGGCAGAGCUCAACACAGCGUGGCAAAGUGGCUGUGGCUAGACUGCCUCUCUGGAUUCCUCGUCACCCAGCAGGGCAUCUCUGAGAGAAAUGCC [U5G U119C] | 1.02
19 | UACGUAGGUGGUUUUCCCCUGAUAGUGCUAAGGGGGCCUGGAAGUUUGGACUGGGCAGAGCUCAACACAGCGUGGCAAAGUGGCUGUGGCUAGACUGCCUCUCUGGAUUCCUCGUCACUCAGCAGCGCAUCUCUGAGAGAAAUGCC [G126C] | 1.19
20 | UACGUAGGCGGUUUUCCCCUGAUAGUGCUAAGGGGGCCUGGAAGUUUGGACUGGGCAGAGCUCAACACAGCGUGGCAAAGUGGCUGUGGCUAGACUGCCUCUCUGGGUUCCUCGUCACUCAGCAGGGCAUCUCUGAGAGAAAUGCC [U9C A107G] | 1.61

Row | Variant | self-cleavage
21 | UACGUAGGUGGUUUUCCCCUGAUAGUGCUAAGGGGGCCUGGAAGUUUGGACUGGGCAGAGCUCAACACAGCGUGGCAAAGUGGCUGUAGCUAGACUGCCUCUCUGGAUUCCUCGUCACUCAGCAGGGCAUCUCUGAGAGAAAUGCC [G88A] | 0.04
22 | UACGUAGGUGGUUUUCCCCUGAUAGUGCUAAGGGGGCCUGGAAGUUUGGACUGGGCCGAGCUCAACACUGCGUGGCAAAGUGGCUGUGGCUAGACUGCCUCUCUGGAUUCCUCGUCACUCAGCAGGGCAUCUCUGAGAGAAAUGCC [A57C A69U] | 0.08
23 | UACGUAGGUGGUUUUCCCCUGAUAGUGCUAAGGGGGCCUGGAAGUUUGGACUGGGCAGAGCUCAACACAGCGUGGCGAAGUGGCAGUGGCUAGACUGCCUCUCUGGAUUCCUCGUCACUCAGCAGGGCAUCUCUGAGAGAAAUGCC [A77G U85A] | 0.06
24 | UACGUAGGUGGUUUUCCCCUGAUAGUGCUAAGCGGGCCUGGAAGUUUGGACUGGGCAGAGCUCAACACAGCGUGGCAAAGUGGCUGUGGCUAGACUGCCUCUCUGGAUUCCUCGCCACUCAGCAGGGCAUCUCUGAGAGAAAUGCC [G33C U115C] | 2.26
25 | UACGUAGGUGGUUUUCCCCUGAUAGUGCUAAGGGGGCCUGGAAGUUUGGACUGGGCUGAGCUCAACACAGCGUGGCAAAGUGGCUGUGGCUAGACUGCCUCUCUGGAUUCCUCGUCACUCAGCAGGGCAUCUCUGAGAGAAACGCC [A57U U143C] | 0.14
26 | UACGUAGGUGGUUUUCCCCUGAUAGUGCUAAGGGGGCCUGGAAGUUUGGACUGGGCGGAGCUCAACACAGCGUGGCAAAGUGGCUGUGGCUAGACUGCCUCUCUGGAUUCCUCGUCACUCAGCAGGGCAUCUCUGAGAGAAAUGCC [A57G] | 0.88
27 | UACGUAGGUGGUUUUCCCCUGAUAGUGCUAAGGGGGCCUGGAAGUUUGGACUGGGCAGAGCUCAACACAGCGUGGCAAAGUGGCUGUGGCUAGACUGCCUCUCUGGAUUCCUCGUCACUCGACAGGGCAUCUCUGAGAGAAAUGCC [A121G G122A] | 1.46
28 | UACGUAGGUGGUUUUCCCCUGAUAGUGCUAAGGGGGCCUGGAAGUUUGGACUGGGCAGAGCUCAACACAGCGUGGCAAAGUGGCUGUGGCUAGACUGCCUCUCUGGACUACUCGUCACUCAGCAGGGCAUCUCUGAGAGAAAUGCC [U108C C110A] | 1.49
29 | UACGUAGGUGGUUUUCCCCUGAUAGUGCUAAGGGGGCCUGGAAGUUUGGACUGGGCAGAGCUCAACACAGGGUGGCAAAGUGGCUGUGGCUAGACUGCCUCUCUGGAUUCCUCGUCACUCAGCAGGGCAUCUCUGAGAGAGAUGCC [C71G A141G] | 0.4
30 | UACGUAGGUGGUUUUCCCCUGAUAGCGCUAAGGGGGCCUGGAAGUUUGGACUGAGCAGAGCUCAACACAGCGUGGCAAAGUGGCUGUGGCUAGACUGCCUCUCUGGAUUCCUCGUCACUCAGCAGGGCAUCUCUGAGAGAAAUGCC [U26C G54A] | 0.6
31 | UACGUAGGUGGUUUUCCCCUGAUAGUGCUAAGGGGGCCUGGAAGUCUGGAAUGGGCAGAGCUCAACACAGCGUGGCAAAGUGGCUGUGGCUAGACUGCCUCUCUGGAUUCCUCGUCACUCAGCAGGGCAUCUCUGAGAGAAAUGCC [U46C C51A] | 1.52
32 | UACGUAGGUGGUUUUCCCUUGAUAGUGCUAAGGGGGCCUGGAAGUUUGGACUGGGCAGAGCUCAACACAGCGUGGCAAAGUGGCUGCGGCUAGACUGCCUCUCUGGAUUCCUCGUCACUCAGCAGGGCAUCUCUGAGAGAAAUGCC [C19U U87C] | 0.06
33 | UACGUAGGUGGUUUUCCCCUGAUAGUGCUAAGGGGGCCUGGAAGUUUGGACUGGGCGGAGCUCAACACAGCGUGGCAAAGUGGCUGUGGCUAGACUGCCUUUCUGGAUUCCUCGUCACUCAGCAGGGCAUCUCUGAGAGAAAUGCC [A57G C101U] | 1.13
34 | UACGUAGGUGGUAUUCCCCUGAUAGUGCUAAGGGGGCCUGGAAGUUUGGACUGGGCAGAGCUCAACACAGCGUGGCAAAGCGGCUGUGGCUAGACUGCCUCUCUGGAUUCCUCGUCACUCAGCAGGGCAUCUCUGAGAGAAAUGCC [U13A U81C] | 0.85
35 | UACGUAGGUGGUUUUCCCCUGAUAGUGCUAAGGGGGCCUGGAAGUUUGGACUGGGCAGAGCUCAACACAGCGAGGCAAAGUGGCUGUGGCUAGACUGCCUCUCUGGAUUCCCCGUCACUCAGCAGGGCAUCUCUGAGAGAAAUGCC [U73A U112C] | 1.56
36 | UACGUAGGUGGUUUUCCCCUGAUAGUGCUAAGGGGGCCUGGAAGUUUGGACUGGGCAGAGCUCAACACAGCGUGGCAAAGUGGCUGUGGCUAGACUGCCUCCCUGGAUUCCUCGACACUCAGCAGGGCAUCUCUGAGAGAAAUGCC [U102C U115A] | 1.51
37 | UACGUAGGUGGUUUACCCCUGAUGGUGCUAAGGGGGCCUGGAAGUUUGGACUGGGCAGAGCUCAACACAGCGUGGCAAAGUGGCUGUGGCUAGACUGCCUCUCUGGAUUCCUCGUCACUCAGCAGGGCAUCUCUGAGAGAAAUGCC [U15A A24G] | 0.49
38 | UACGUAGGUGGUUUUCCCCUGAUAGUGCUAAGGGGGCCUGGAAGUUUGGACUGGGCAGAGCUCAACACAGCGUGGCAAAGUGGCUGUGGCUAGACUGCCUCUCUGGAUUCCUUGUCACUCAGCAGGGCAUCUCUGAGAGAGAUGCC [C113U A141G] | 0.94
39 | UACGUAGGUGGUUUUCCCCUGAUAGUGCUAAGGGGGCCUGGAAGUUUGGACUGGGCAGAGCUCAACACAGCGUGGCAAAGUGGCUGUGGCUAGACUGCCUCUCUGGAUUCCUCGUCACUCAGCAGGACAUCUCGGAGAGAAAUGCC [G127A U134G] | 1.1
